Results on 4 molecules are retold here after paper PMC5303829, “A CAF40-binding motif facilitates recruitment of the CCR4-NOT complex to mRNAs targeted by Drosophila Roquin” (Nature Communications, 2017).

Holding throughout (conditions): both partners purified
The target of assay [1] is T1, Hs CAF40 ARM domain (residues 19–285) (human, UniProt Q92600 19-285).
T1 construct: CAF40 (CNOT9) armadillo repeat domain, human, residues 19–285; also called CNOT9; purified CAF40 protein; source: E. coli BL21 (DE3) Star, purified (IMAC, heparin, gel filtration)
T1 sequence (Q92600 19-285): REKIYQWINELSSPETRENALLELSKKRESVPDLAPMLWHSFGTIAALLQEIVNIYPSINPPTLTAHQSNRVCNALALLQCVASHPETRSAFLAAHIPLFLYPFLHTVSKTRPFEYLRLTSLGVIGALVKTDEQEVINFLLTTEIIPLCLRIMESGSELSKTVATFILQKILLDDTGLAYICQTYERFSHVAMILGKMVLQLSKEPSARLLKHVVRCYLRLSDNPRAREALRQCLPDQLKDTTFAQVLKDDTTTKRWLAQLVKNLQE
Nature of the assay: pull-down; in vitro MBP pulldown: purified MBP-tagged Roquin fragments (40 μg) with equimolar purified CCR4-NOT proteins or subcomplexes on amylose resin; 50 mM HEPES-NaOH pH 7.5, 200 mM NaCl, 2 mM DTT; 1 h; maltose elution, SDS-PAGE, Coomassie.

Assay [2] addresses T2, Hs NOT module (NOT1-SHD, NOT2-C, NOT3-C) (human, UniProt A5YKK6 1833-2361; Q9NZN8 350-540; O75175 607-748).
T2 construct: NOT1 superfamily homology domain (SHD), human, residues 1833–2361; NOT2-C, human, residues 350–540; NOT3-C, human, residues 607–748; also called NOT1-2-3; source: E. coli, purified as previously described; copies: + +
Described as above.

Assay [3] deals with T1, Hs CAF40 ARM domain (residues 19–285). Nature of the assay: crystal structure; synthetic CBM peptide mixed with the purified Hs CAF40 ARM domain in an equimolar ratio; 0.1 M NaOAc pH 5.0, 17.5% PEG 4000, 0.1 M AmSO4, 18 °C; 2.15 Å.

T2 sequence (A5YKK6 1833-2361, chain 1 of 3): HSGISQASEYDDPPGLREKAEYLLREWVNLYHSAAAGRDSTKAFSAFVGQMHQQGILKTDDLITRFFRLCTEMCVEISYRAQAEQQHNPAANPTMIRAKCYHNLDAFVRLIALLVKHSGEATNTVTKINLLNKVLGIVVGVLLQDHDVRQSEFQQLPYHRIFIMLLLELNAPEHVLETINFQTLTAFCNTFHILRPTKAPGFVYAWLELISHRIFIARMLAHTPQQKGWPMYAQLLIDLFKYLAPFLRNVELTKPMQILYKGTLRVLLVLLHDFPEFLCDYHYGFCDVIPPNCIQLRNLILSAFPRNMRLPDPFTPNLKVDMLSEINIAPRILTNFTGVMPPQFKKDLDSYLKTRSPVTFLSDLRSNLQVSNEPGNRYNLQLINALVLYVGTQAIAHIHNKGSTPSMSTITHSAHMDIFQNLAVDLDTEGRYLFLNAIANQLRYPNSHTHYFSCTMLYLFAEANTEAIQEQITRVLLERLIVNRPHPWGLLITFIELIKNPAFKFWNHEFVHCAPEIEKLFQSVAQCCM
T2 sequence (Q9NZN8 350-540, chain 2 of 3): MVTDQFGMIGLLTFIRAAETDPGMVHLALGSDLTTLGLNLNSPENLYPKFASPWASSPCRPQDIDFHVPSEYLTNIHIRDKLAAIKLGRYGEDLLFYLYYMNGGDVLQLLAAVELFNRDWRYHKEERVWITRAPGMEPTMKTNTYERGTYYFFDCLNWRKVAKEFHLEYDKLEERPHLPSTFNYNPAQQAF
T2 sequence (O75175 607-748, chain 3 of 3): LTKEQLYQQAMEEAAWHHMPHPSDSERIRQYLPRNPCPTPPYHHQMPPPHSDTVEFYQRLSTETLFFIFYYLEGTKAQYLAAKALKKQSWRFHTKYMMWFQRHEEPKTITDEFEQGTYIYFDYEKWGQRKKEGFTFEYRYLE

B1: MBP-tagged Dm Roq-CC (domain or fragment, Drosophila melanogaster, UniProt Q9VV48 702-819, looked up)
chain: NTGKDSANFVRSDSILDDDASTFDVPTGSSMLSIYGPICPKSSTTGNWNNFDLGYGGFKSDRNDSFNANKQQQPMWGRKPQLMSEDSFEGGIDSGMMLQLEKNLVDIVDPDDSGIKVD
notes: also called MBP-Roq-CC; not shown: MBP, N-terminal, kept
In the case of B1, the binding result in assay [1] and in assay [2] was “binds” each time.

B2: MBP-tagged Dm Roquin CBM alone (peptide, UniProt Q9VV48 790-812, looked up)
chain: EGGIDSGMMLQLEKNLVDIVDPD
notes: source: E. coli BL21 (DE3) Star, purified; not shown: MBP, N-terminal, kept
In the case of B2, the binding result in assay [1] is listed as “binds”.

B3: Dm Roquin CBM peptide (residues 790–810) (peptide, UniProt Q9VV48 790-810, looked up)
peptide: EGGIDSGMMLQLEKNLVDIVD
notes: also called Dm CBM; source: synthetic peptide (EMC Microcollections)
For the molecule B3, in assay [3], the binding result is given as “binds”.

B4: MBP-tagged Dm Roq-CN (domain or fragment, Drosophila melanogaster, UniProt Q9VV48 501-702, looked up)
chain: HYMGSPRGYLDPSLGLSPGGGLPPSHHSPITRLIVPSRYDSRFSGFGGGTPRIPSPREYQANPVAPTQRNANPPNFSVNSNLHKGYMLPASGGDVFHLANPWEQAYLAQQQHPPQHPQQQQPPSSKPNPSRPLSILPATADTSFFEKKPPNSVSIDLDRVPEVNVDAVPLFRRSNNNHNNNNSNSHNNNNNNHGSSLLFWNN
notes: as for B2
Take B4: the binding result in assay [2] was “binds”.
